Read-outs that look alike come from different tables or passages of the source. Some results are limits rather than exact numbers.

Broadly, the IC50 is the concentration needed to halve the response being measured. Read a low IC50 as inhibition by little substance.

The target in test [1] is human B7.1 antigen (CD80), membrane associated (human) (UniProt P33681). The test can be described thus: competition on B7.1 transfected CHO cells; competitor pair BB-1 and L307.4 (FIG. 8).
The target in test [2] is T1, human B7.1 antigen (CD80), membrane associated (human, UniProt P33681 35-288).
T1 sequence (looked up): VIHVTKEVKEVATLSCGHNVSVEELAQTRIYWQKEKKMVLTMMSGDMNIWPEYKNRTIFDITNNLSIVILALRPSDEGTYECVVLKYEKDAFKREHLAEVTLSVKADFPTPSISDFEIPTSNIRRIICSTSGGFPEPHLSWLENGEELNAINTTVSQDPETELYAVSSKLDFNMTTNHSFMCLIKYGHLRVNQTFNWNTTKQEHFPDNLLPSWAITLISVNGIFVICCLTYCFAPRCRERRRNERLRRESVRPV
The test can be described thus: cell-based or functional assay.

Test [3] addresses T2, B7.1/Ig fusion protein (human, UniProt P33681 35-242, limits assumed).
T2 construct: Secreted from CHO cells; also called B7-Ig; B7Ig; not shown: human immunoglobulin CH2 and CH3
T2 sequence (looked up): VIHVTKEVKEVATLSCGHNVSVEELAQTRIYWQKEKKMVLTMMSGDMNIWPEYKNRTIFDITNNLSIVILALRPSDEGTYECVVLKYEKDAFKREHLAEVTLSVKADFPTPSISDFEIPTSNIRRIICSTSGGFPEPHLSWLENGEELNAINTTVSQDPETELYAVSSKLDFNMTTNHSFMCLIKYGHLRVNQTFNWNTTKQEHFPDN
The test can be described thus: Scatchard analysis, binding to B7-Ig coated plates (apparent Kd).

The target in test [4] is T2, B7.1/Ig fusion protein. The description is as above. The source holds these as a separate data set.
Test [5] addresses T3, B7 antigen (CD80) as used in surface plasmon resonance (UniProt P33681 35-242, limits assumed).
T3 sequence (looked up): T2 sequence (looked up)
The test can be described thus: surface plasmon resonance. (SPR reads the build-up and loss of mass on a sensor chip optically.)

The target in test [6] is T2, B7.1/Ig fusion protein. The test can be described thus: competition of 125I-B7.1Ig binding to CD28 positive peripheral blood T lymphocytes (FIG. 10).
The target in test [7] is T2, B7.1/Ig fusion protein. The test can be described thus: cell-based or functional assay.

For BB-1 murine anti-B7 antibody, the cross-reactivity (competition) in test [1] was 50%.

B1: monkey monoclonal antibody 7C10 (antibody, V domains shown)
VH: QVKLQQWGEGLLQPSETLSRTCVVSGGSISGYYYWTWIRQTPGRGLEWIGHIYGNGATTNYNPSLKSRVTISKDTSKNQFFLNLNSVTDADTAVYYCARGPRPDCTTICYGGWVDVWGPGDLVTVSS
VL: AYELTQPPSVSVSPGQTARITCGGDNSRNEYVHWYQQKPARAPILVIYDDSDRPSGIPERFSGSKSGNTATLTINGVEAGDEADYYCQVWDRASDHPVFGGGTRVTVL
notes: Cynomolgus monkey antibody from a heterohybridoma; The claims (CLM-00020) say that the amino acid entries are the even numbers of each pair; also called 7C10 monkey Ig; hybridoma ATCC HB-12117
Take B1: in test [2], the “inhibition of IL-2 production in mixed lymphocyte reaction” value (from here on “inhibition of IL-2 production”) was determined as 5 µg/mL. Also, the Kd in test [3] and in test [4] was roughly 6.2 nM each time.

B2: monkey monoclonal antibody 7B6 (antibody, V domains shown)
VH: EVQLVESGGGLVQPGGSLRVSCAVSGFTFSDHYMYWFRQAPGKGPEWVGFIRNKPNGGTTEYAASVKDRFTISRDDSKSIAYLQMSSLKIEDTAVYYCTTSYISHCRGGVCYGGYFEFWGQGALVTVSS
VL: EVVMTQSPLSLPITPGEPASISCRSSQSLKHSNGDTFLSWYQQKPGQPPRLLIYKVSNRDSGVPDRFSGSGAGTDFTLKISAVEAEDVGVYFCGQGTRTPPTFGGGTKVEIK
notes: Cynomolgus monkey antibody from a heterohybridoma; also called hybridoma ATCC HB-12120
As to B2, the “inhibition of IL-2 production” value in test [2] stood at 5 µg/mL. Further, the Kd in test [3] and in test [4] was roughly 10.7 nM in each case.

B3: PRIMATIZED 16C10 (antibody, V domains shown)
VH: QVQLQESGPGLVKPSETLSLTCAVSGGSISGGYGWGWIRQPPGKGLEWIGSFYSSSGNTYYNPSLKSQVTISTDTSKNQFSLKLNSMTAADTAVYYCVRDRLFSVVGMVYNNWFDVWGPGVLVTVSS
VL: ESALTQPPSVSGAPGQKVTISCTGSTSNIGGYDLHWYQQLPGTAPKLLIYDINKRPSGISDRFSGSKSGTAASLAITGLQTEDEADYYCQSYDSSLNAQVFGGGTRLTVLG
notes: Monkey variable domains with human constant regions, made in CHO cells; Biotinylated in some assays; also called P16C10; copies: 2 + 2
Regarding B3, the Kd in test [5] turned out to be 4 nM. For the same molecule, the 50% inhibitory concentration (IC50) in test [6] was less than 1 µg/mL. Moreover, the “concentration for equivalent blocking of IL-2 production against CTLA-4Ig, anti-CD3/B7 beads (8:1)” value in test [7] was roughly 10 fold.

B4: monkey monoclonal antibody 16C10 (antibody, V domains shown)
VH: B3 VH
VL: ESALTQPPSVSGAPGQKVTISCTGSTSNIGGYDLHWYQQLPGTAPKLLIYDINKRPSGISDRFSGSKSGTAASLAITGLQTEDEADYYCQSYDSSLNAQVFGGGTRLTVL
notes: Cynomolgus monkey antibody from a heterohybridoma; also called hybridoma ATCC HB-12119
With B4, the “inhibition of IL-2 production” value in test [2] was determined as 0.1 µg/mL. Besides, the Kd in test [3] and in test [4] was roughly 8.1 nM in each case.

The values above are taken from patent US7425447 (Biogen, dated 2008).
